Measurements: PMC6056499, “A systematic dissection of sequence elements determining β-Klotho and FGF interaction and signaling” (Scientific Reports, 2018)
Substitutions are numbered along the chain they refer to. Values belong to the binder of their own block, whether it stands above or below them.

Molecular target: human β-Klotho extracellular domain (aa1–992) fused with a 6 × His tag at the C-terminus, Q86Z14
Experiment: solid-phase binding assay
Details: chain shown with the change;; parent: est. 1.0; read off a plot

Chain of human β-Klotho extracellular domain (aa1–992) fused with a 6 × His tag at the C-terminus, Q86Z14 (Q86Z14 53-992): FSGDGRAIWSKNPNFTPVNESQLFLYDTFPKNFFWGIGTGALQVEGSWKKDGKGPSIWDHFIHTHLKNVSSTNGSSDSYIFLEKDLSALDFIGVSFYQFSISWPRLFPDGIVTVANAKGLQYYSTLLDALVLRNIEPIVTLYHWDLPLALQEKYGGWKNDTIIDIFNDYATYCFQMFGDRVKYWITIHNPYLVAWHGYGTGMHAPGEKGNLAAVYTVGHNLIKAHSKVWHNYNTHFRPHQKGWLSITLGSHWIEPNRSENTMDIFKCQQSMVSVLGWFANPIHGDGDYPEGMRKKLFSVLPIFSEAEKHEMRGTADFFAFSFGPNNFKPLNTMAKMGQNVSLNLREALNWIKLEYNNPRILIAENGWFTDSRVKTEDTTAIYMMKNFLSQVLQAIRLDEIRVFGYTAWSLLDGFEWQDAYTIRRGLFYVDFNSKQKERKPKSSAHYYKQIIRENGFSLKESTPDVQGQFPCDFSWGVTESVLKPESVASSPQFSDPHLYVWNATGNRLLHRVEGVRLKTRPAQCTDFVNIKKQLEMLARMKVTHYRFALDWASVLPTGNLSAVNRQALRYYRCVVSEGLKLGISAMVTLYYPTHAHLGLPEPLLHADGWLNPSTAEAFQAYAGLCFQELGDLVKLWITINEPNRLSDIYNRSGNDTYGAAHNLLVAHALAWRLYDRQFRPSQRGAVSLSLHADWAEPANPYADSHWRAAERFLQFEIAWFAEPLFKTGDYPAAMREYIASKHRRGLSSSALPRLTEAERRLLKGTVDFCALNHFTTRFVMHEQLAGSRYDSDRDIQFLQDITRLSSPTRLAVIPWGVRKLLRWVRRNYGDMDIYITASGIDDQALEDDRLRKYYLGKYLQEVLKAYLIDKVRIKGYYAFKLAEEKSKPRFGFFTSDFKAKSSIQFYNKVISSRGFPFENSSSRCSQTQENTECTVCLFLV

- ratio to parent: 0.6
B1: mature human FGF21 polypeptide fused with the human Fc fragment at the N-terminus (Fc-FGF21), wild type, Q9NSA1 191S-A (protein)
chain: HPIPDSSPLLQFGGQVRQRYLYTDDAQQTEAHLEIREDGTVGGAADQSPESLLQLKALKPGVIQILGVKTSRFLCQRPDGALYGSLHFDPEACSFRELLLEDGYNVYQSEAHGLPLHLPGNKSPHRDPAPRGPARFLPLPGLPPALPEPPGILAPQPPDVGSADPLSMVGPSQGRSPSYAS

- ratio to parent: 250
B2: mature human FGF21 polypeptide fused with the human Fc fragment at the N-terminus (Fc-FGF21), wild type, Q9NSA1 204S-R (protein)
chain: B1 chain with A163S, S176R

- ratio to parent: 170
B3: mature human FGF21 polypeptide fused with the human Fc fragment at the N-terminus (Fc-FGF21), wild type, Q9NSA1 206S-R (protein)
chain: B1 chain with A163S, S178R

- ratio to parent: 350
B4: mature human FGF21 polypeptide fused with the human Fc fragment at the N-terminus (Fc-FGF21), wild type, Q9NSA1 191S-R (protein)
chain: B1 chain with A163R

- ratio to parent: 180
B5: mature human FGF21 polypeptide fused with the human Fc fragment at the N-terminus (Fc-FGF21), wild type, Q9NSA1 207Y-A (protein)
chain: B1 chain with A163S, Y179A

- ratio to parent: 120
B6: mature human FGF21 polypeptide fused with the human Fc fragment at the N-terminus (Fc-FGF21), wild type, Q9NSA1 206S-A (protein)
chain: B1 chain with A163S, S178A

- ratio to parent: 530
B7: mature human FGF21 polypeptide fused with the human Fc fragment at the N-terminus (Fc-FGF21), wild type, Q9NSA1 207Y-R (protein)
chain: B1 chain with A163S, Y179R

- ratio to parent: 120
B8: mature human FGF21 polypeptide fused with the human Fc fragment at the N-terminus (Fc-FGF21), wild type, Q9NSA1 204S-A (protein)
chain: B1 chain with A163S, S176A
